Our source for the percent of parent and other: pEC50 values is publication doi:10.1101/2023.07.07.547762.

This experiment deals with NES-Venus-miniGs. Kind of experiment: BRET (NanoLuc-labelled receptor and Venus-labelled mini-Gs recruitment). To be noted: three independent experiments; for percent of parent: Emax of the DMCH concentration-response; for other: pEC50: pEC50 of the agonist DMCH for mini-Gs recruitment. On the technique in general: In BRET a luciferase serves as donor, and the signal depends on an acceptor being close.

As for “mTAAR7f with N-terminal twin-strep tag and SNAP-tag and C-terminal nanoluc (wild type) (from UniProt Q5QD08) V315A”, the percent of parent was determined as 0%. As for “mTAAR7f with N-terminal twin-strep tag and SNAP-tag and C-terminal nanoluc (wild type) (from UniProt Q5QD08) W286Y”, the percent of parent came to 24% and the other: pEC50 was 5.3. In the case of “mTAAR7f with N-terminal twin-strep tag and SNAP-tag and C-terminal nanoluc (wild type) (from UniProt Q5QD08) D127A”, the percent of parent was 0%.

Regarding “mTAAR7f with N-terminal twin-strep tag and SNAP-tag and C-terminal nanoluc (wild type) (from UniProt Q5QD08) C131A”, the percent of parent came out at 60% and the other: pEC50 was found to be 4.9. For “mTAAR7f with N-terminal twin-strep tag and SNAP-tag and C-terminal nanoluc (wild type) (from UniProt Q5QD08) Y132A”, the percent of parent stood at 17% and the other: pEC50 is 3.6. Taken in the same sequence, the figures for “mTAAR7f with N-terminal twin-strep tag and SNAP-tag and C-terminal nanoluc (wild type) (from UniProt Q5QD08) Y289A” were 47% and 4.2.
